Measurements from paper PMC2150872 (The Journal of Cell Biology, 2001).
Blank lines part the entries; values can stand above or below the binder they belong to.

Tests used:
wt K5–K14 filaments = molecular target: T1, wt K5–K14 filaments (human, UniProt P13647 1-590; P02533 1-472); test: co-sedimentation
T1 sequence (looked up) 1: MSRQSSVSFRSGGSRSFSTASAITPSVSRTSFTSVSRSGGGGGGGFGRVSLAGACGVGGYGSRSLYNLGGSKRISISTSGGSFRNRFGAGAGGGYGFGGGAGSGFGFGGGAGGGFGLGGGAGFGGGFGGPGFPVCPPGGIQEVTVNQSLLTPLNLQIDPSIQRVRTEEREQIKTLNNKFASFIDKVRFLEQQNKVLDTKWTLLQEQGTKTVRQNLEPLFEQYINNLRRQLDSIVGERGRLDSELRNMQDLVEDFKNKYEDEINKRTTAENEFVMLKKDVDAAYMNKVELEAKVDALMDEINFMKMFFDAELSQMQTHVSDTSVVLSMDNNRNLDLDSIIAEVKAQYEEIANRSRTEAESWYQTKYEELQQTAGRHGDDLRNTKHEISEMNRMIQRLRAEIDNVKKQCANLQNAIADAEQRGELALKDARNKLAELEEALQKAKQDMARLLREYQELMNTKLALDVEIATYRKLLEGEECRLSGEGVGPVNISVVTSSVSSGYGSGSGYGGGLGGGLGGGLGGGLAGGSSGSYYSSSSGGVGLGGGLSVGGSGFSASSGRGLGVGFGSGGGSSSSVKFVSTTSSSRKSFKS
T1 sequence (looked up) 2: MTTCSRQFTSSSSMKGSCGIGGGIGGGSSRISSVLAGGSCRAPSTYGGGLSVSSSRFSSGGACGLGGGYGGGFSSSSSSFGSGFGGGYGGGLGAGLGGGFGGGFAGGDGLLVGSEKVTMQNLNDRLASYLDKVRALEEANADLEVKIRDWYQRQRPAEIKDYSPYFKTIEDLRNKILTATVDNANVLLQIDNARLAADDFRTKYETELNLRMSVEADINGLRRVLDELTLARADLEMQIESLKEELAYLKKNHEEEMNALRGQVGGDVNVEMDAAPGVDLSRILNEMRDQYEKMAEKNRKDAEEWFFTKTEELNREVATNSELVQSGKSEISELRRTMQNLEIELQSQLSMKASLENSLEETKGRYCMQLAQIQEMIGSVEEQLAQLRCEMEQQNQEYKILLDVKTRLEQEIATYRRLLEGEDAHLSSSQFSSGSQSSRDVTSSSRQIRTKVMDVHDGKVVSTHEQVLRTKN

keratin 5 = molecular target: T2, keratin 5 (human, UniProt P13647 1-590); test: filament reconstitution
T2 sequence (looked up): T1 sequence (looked up) 1

- Kd (wt K5–K14 filaments): ~2000 nM
Binder: SSSQFSSGSQSSRDVTSSSRQIRTKVMDVHDGKVVSTHEQVLRTKN (domain or fragment) [His-T14 (His-tagged nonhelical tail domain of human keratin 14)]

- binding result (keratin 5): binds
B1: keratin 19 (natural protein, human, UniProt P08727 1-400, looked up)
chain: MTSYSYRQSSATSSFGGLGGGSVRFGPGVAFRAPSIHGGSGGRGVSVSSARFVSSSSSGAYGGGYGGVLTASDGLLAGNEKLTMQNLNDRLASYLDKVRALEAANGELEVKIRDWYQKQGPGPSRDYSHYYTTIQDLRDKILGATIENSRIVLQIDNARLAADDFRTKFETEQALRMSVEADINGLRRVLDELTLARTDLEMQIEGLKEELAYLKKNHEEEISTLRGQVGGQVSVEVDSAPGTDLAKILSDMRSQYEVMAEQNRKDAEAWFTSRTEELNREVAGHTEQLQMSRSEVTDLRRTLQGLEIELQSQLSMKAALEDTLAETEARFGAQLAHIQALISGIEAQLGDVRADSERQNQEYQRLMDIKSRLEQEIATYRSLLEGQEDHYNNLSASKVL
